Test results from patent publication US20060286032A1, “A radiosotope-chitosan complex for treatment of prostate cancer” (priority 2003, published 2006).
“Also recorded” adds a separate entry of the source.

Assays:
[1] = Cumulative urinary and fecal excretion of radioactivity for 72 hrs after injection into the prostate gland; type: in vivo, SD rats; conditions: for Radioactivity remaining in Carcass / Radioactivity remaining in Prostate gland: 72 hr; for Total recovery rate: 72 hrs
Method: After the complex solution was administered to the prostate gland, cumulative urinary and fecal excretions of radioactivity were examined to investigate the amount of excreted ^166Ho. 25 μl of the test drug was administered to the prostate gland of SD rats, which was equal to about 100 μCi. The amount of radioactivity excreted for 72 hrs was measured. The rats were kept in metabolic cages made of a stainless material. Urine and feces were collected, and, 72 hrs after administration, the rats were sacrificed with diethylether. Radioactivity remaining in the carcass and the prostate gland was also measured.

[2] = test system: AIT tumor transplanted into the prostate gland; experiment: Histopathological examination of tumor tissue of rats of the orthotopic model (hematoxylin and eosin); type: in vivo, noble rats
Text: (§1) From all rats tested in Experimental Example 7, which were sacrificed on the last day of the test, the heart, lung, liver, kidney, spleen, testes, epididymis, seminal vesicle, bladder, rectum and tumor tissues were excised, embedded in paraffin according to general tissue processing, and sectioned into a thickness of 3 μm. The tissue sections were subjected to double staining with hematoxylin and eosin and histopathologically examined.

[3] = Radioactive concentrations in collected organs and tissues by liquid scintillation counter after injection into the prostate gland; type: in vivo, SD rats; conditions: for Administered radioactivity retained in the prostate gland: until 144 hrs after administration
Method: After the complex solution was administered, accurate radioactive concentrations were measured in various organs. 25 μl of the complex solution as a test drug were administered to the prostate gland in the abdominal region of SD rats, which was equal to about 100 μCi. After 0.5, 2, 6, 24, 72 and 144 hrs, the rats were anesthetized with diethylether and exsanguinated by incision of abdominal aorta. Various organs and tissues were collected, which included blood, plasma, brain, thymus, heart, lung, liver, kidney, adrenal gland, spleen, pancreas, testes, prostate gland (including an administration site), seminal vesicle, epididymis, bladder, skeletal muscle, bones, bone marrow, skin, carcass, stomach, small intestine, rectum and large intestine. The collected organs and tissues were weighed, sectioned and homogenized. The whole sample or the supernatant was assayed for radioactivity using a liquid scintillation counter. The measured radioactive concentrations in various organs and tissues according to the time are given in Table 3 (% ID/g) and Table 4 (% of dose).

[4] = Whole-body autoradiography after injection of 25 μl or 50 μl complex solution into the prostate gland; type: in vivo, male SD rats
Method: After one week acclimation, male SD rats were anesthetized with diethylether, and an about 2-cm midline incision was made in the lower abdomen of the pubis. After the prostate gland was exposed along with the bladder, 25 μl and 50 μl (each about 100 μCi) of the complex solution prepared in Example 2 were individually administered to the prostate gland using a syringe. After the rats were sacrificed 0.5 hr and 6 hrs after administration, cryosections were prepared, and whole-body autoradiography was carried out to measure radioactive concentrations in the liver, spleen, kidney, the end region of the femur, spine and administration sites. The measured radioactive concentrations (% ID/g) in various organs after injection of the complex solution are given in Table 1, below.
Numerals of Table 1 indicate mean+standard deviation (n=3).

[5] = Histopathological examination of organs of rats of the orthotopic model (hematoxylin and eosin); type: in vivo, noble rats; conditions: for Histopathological changes in organs other than the tumor tissue (heart, lung, liver, kidney, spleen, testes, epididymis, seminal vesicle, bladder, rectum): last day of the test
Text: as §1

[6] = test system: AIT prostate carcinoma cells; experiment: Antitumor effect in orthotopic tumor model, AIT transplanted into the prostate gland; type: in vivo, noble rats
Method: In addition to the subcutaneous tumor model tested in Experimental Example 6, the antitumor effect and side effects of the complex solution was examined in an orthotopic tumor model where AIT prostate carcinoma cells had been directly transplanted into the prostate gland. AIT cells were cultured in 10% FBS-containing DMEM at 37° under 5% CO2. The cultured carcinoma cells were suspended in sterile physiological saline at a density of 2×10^6 cells/0.05 ml. After noble rats were anesthetized with fentanyl and the abdomen was opened, 2×10^6 cells per rat were transplanted into the prostate gland of the rats. Seven days after carcinoma transplantation, the rats were randomly allocated. The kit prepared in Example 2 was used as a test drug, and 0.05 ml of the kit was administered. The rats were divided into four groups: a control group (no treatment); two administration groups administered with 0.5 mCi and 1.0 mCi of the complex solution; and another administration group administered with a non-radioactive complex solution (Holmium-165 (^165Ho)-chitosan complex solution). Two and four weeks after administration of the complex solution, the rats were sacrificed, and tumors were excised from the rats and weighed.

[7] = 0.5 mCi, four weeks after administration (FIG. 2 C and D)
[8] = listed as radioisotope-chitosan complex

Holmium-166 (^166Ho)-Chitosan Complex [complex solution]
Cumulative excretion, Urine ([1]; 0-3 hr, animal 1): 0.03 % of dose
Cumulative excretion, Urine ([1]; 0-3 hr, animal 2): 0.03 % of dose
Cumulative excretion, Urine ([1]; 0-3 hr, animal 3): 0.04 % of dose
Cumulative excretion, Urine ([1]; 0-6 hr, animal 1): 0.04 % of dose
Cumulative excretion, Urine ([1]; 0-6 hr, animal 2): 0.04 % of dose
Cumulative excretion, Urine ([1]; 0-6 hr, animal 3): 0.05 % of dose
Cumulative excretion, Urine ([1]; 0-24 hr, animal 1): 0.11 % of dose
Cumulative excretion, Urine ([1]; 0-24 hr, animal 2): 0.13 % of dose
Cumulative excretion, Urine ([1]; 0-24 hr, animal 3): 0.17 % of dose
Cumulative excretion, Feces ([1]; 0-72 hr, Mean): 0.11 % of dose
Cumulative excretion, Urine ([1]; 0-72 hr, Mean): 0.35 % of dose
Cumulative excretion, Feces ([1]; 0-72 hr, animal 3): 0.11 % of dose
Radioactivity remaining in Carcass ([1]; Mean): 2.67 % of dose
Radioactivity remaining in Prostate gland ([1]; Mean): 99.19 % of dose
Radioactivity remaining in Carcass ([1]; animal 1): 2.32 % of dose
Radioactivity remaining in Prostate gland ([1]; animal 1): 98.84 % of dose
Radioactivity remaining in Carcass ([1]; animal 2): 3.27 % of dose
Radioactivity remaining in Prostate gland ([1]; animal 2): 96.79 % of dose
Radioactivity remaining in Carcass ([1]; animal 3): 2.42 % of dose
Radioactivity remaining in Prostate gland ([1]; animal 3): 101.94 % of dose
Total recovery rate ([1]; Mean): 99.65%
Total recovery rate ([1]; animal 1): 99.23%
Total recovery rate ([1]; animal 2): 97.27%
Total recovery rate ([1]; animal 3): 102.46%
Histopathology of the tumor, center of injection site [2, 7]: broad necrosis
Tumor cells in injection site [2, 7]: all of tumor cells in injection site are necrotized
Histopathology of the tumor tissue at the administration site ([2]; last day of the test): a large necrosis
Radioactive concentration, Blood ([3]; 30 min after injection): 26 ± 10 % ID/g ×10^−4
Radioactive concentration, Bones ([3]; 30 min after injection): 71 ± 55 % ID/g ×10^−4
Radioactive concentration, Plasma ([3]; 30 min after injection): 44 ± 16 % ID/g ×10^−4
Radioactive concentration, Blood ([3]; 2 hrs after injection): 19 ± 9 % ID/g ×10^−4
Radioactive concentration, Bones ([3]; 2 hrs after injection): 189 ± 79 % ID/g ×10^−4
Radioactive concentration, Plasma ([3]; 2 hrs after injection): 32 ± 11 % ID/g ×10^−4
Radioactive concentration, Bone marrow ([3]; 6 hrs after injection): 17 % ID/g ×10^−4
Radioactive concentration, Bones ([3]; 6 hrs after injection): 185 ± 107 % ID/g ×10^−4
Radioactive concentration, Bone marrow ([3]; 24 hrs after injection): 32 ± 4 % ID/g ×10^−4
Radioactive concentration, Bones ([3]; 24 hrs after injection): 711 ± 413 % ID/g ×10^−4
Radioactive concentration in other tissues (other than prostate gland, carcass, liver) ([3]; 72 hrs after administration): less than 0.1%
Radioactive concentration, Bone marrow ([3]; 72 hrs after injection): 109 ± 40 % ID/g ×10^−4
Radioactive concentration, Bones ([3]; 72 hrs after injection): 2343 ± 827 % ID/g ×10^−4
Radioactive concentration, Bones ([3]; 144 hrs after injection): 1708 ± 506 % ID/g ×10^−4
Radioactivity in major organs (brain, thymus, heart, lung, adrenal gland, spleen) and adjacent organs (bladder, rectum, testes, epididymis) ([3]; rat, in vivo): rarely detected
Administered radioactivity retained in the prostate gland [3]: over 98%
Administered radioactivity retained in the prostate gland [3, 8]: more than 98%
Radioactive concentration, Administration site ([4]; 25 μl administration, 30 min): 4258 ± 732.9 % ID/g
Radioactive concentration, End region of femur ([4]; 25 μl administration, 30 min): 0.05 ± 0.030 % ID/g
Radioactive concentration, Spine ([4]; 25 μl administration, 30 min): 0.02 ± 0.009 % ID/g
Radioactive concentration, Administration site ([4]; 25 μl administration, 6 hrs): 4478 ± 1212.4 % ID/g
Radioactive concentration, End region of femur ([4]; 25 μl administration, 6 hrs): 0.16 ± 0.047 % ID/g
Radioactive concentration, Kidney ([4]; 25 μl administration, 6 hrs): 0.01 ± 0.002 % ID/g
Radioactive concentration, Liver ([4]; 25 μl administration, 6 hrs): 0.04 ± 0.015 % ID/g
Radioactive concentration, Spine ([4]; 25 μl administration, 6 hrs): 0.04 ± 0.011 % ID/g
Radioactive concentration, Spleen ([4]; 25 μl administration, 6 hrs): 0.03 ± 0.007 % ID/g
Radioactive concentration, Administration site ([4]; 50 μl administration, 30 min): 3196 ± 212.5 % ID/g
Radioactive concentration, End region of femur ([4]; 50 μl administration, 30 min): 0.05 ± 0.030 % ID/g
Radioactive concentration, Kidney ([4]; 50 μl administration, 30 min): 0.02 ± 0.011 % ID/g
Radioactive concentration, Liver ([4]; 50 μl administration, 30 min): 0.01 ± 0.007 % ID/g
Radioactive concentration, Spine ([4]; 50 μl administration, 30 min): 0.02 ± 0.007 % ID/g
Radioactive concentration, Administration site ([4]; 50 μl administration, 6 hrs): 3054 ± 1873.0 % ID/g
Radioactive concentration, End region of femur ([4]; 50 μl administration, 6 hrs): 0.10 ± 0.065 % ID/g
Radioactive concentration, Kidney ([4]; 50 μl administration, 6 hrs): 0.01 ± 0.001 % ID/g
Radioactive concentration, Liver ([4]; 50 μl administration, 6 hrs): 0.03 ± 0.008 % ID/g
Radioactive concentration, Spine ([4]; 50 μl administration, 6 hrs): 0.04 ± 0.018 % ID/g
Radioactive concentration, Spleen ([4]; 50 μl administration, 6 hrs): 0.02 ± 0.014 % ID/g
Radioactivity detected in the administration site ([4]; 6 hrs after administration): over 90%
Radioactivity in major organs including the liver, spleen and kidney ([4]; 6 hrs after administration): no radioactivity was detected
Radioactivity in major organs including the liver, spleen and kidney ([4]; 6 hrs after administration, listed as radioisotope-chitosan complex): rarely detected
Histopathological changes in organs other than the tumor tissue (heart, lung, liver, kidney, spleen, testes, epididymis, seminal vesicle, bladder, rectum) ([5]; listed as present complex solution): no abnormalities in adjacent organs were found
Histopathological changes in organs other than the tumor tissue (heart, lung, liver, kidney, spleen, testes, epididymis, seminal vesicle, bladder, rectum) [5, 8]: particular histopathological changes are not found
Cellularity of the bone marrow and peripheral blood ([5]; rat, in vivo): not reduced
Tumor weight ([6]; 0.5 mCi, 2 wks after administration): 0.45 ± 0.07 g
Tumor weight ([6]; 0.5 mCi, 4 wks after administration): 1.58 ± 0.97 g
Tumor weight ([6]; 1.0 mCi, 2 wks after administration): 0.49 ± 0.08 g
Tumor weight ([6]; 1.0 mCi, 4 wks after administration): 1.09 ± 0.32 g
Effect on tumor growth ([6]; two weeks after administration, listed as present complex): showed an inhibitory effect against the tumor growth; also recorded: the tumor growth was suppressed
